Numbering of substitutions follows the chain as printed. Names may count otherwise. Ends that are not written are not given here.
How the values were obtained:
[1] = tested on: collagen type IV; assay: Initial (single point) binding screen of Tp0751 peptide library to immobilized collagen type IV; conditions: immobilized human collagen type IV; absorbance 600 nm, three wells, two independent experiments; Student's two-tailed t-test against non-binding peptides
Method: (§1) Fig 3 Tp0751 lipocalin derived peptides directly bind host proteins. (A) Thirteen overlapping Tp0751 synthetic 24-mer peptides were evaluated for binding to immobilized fibrinogen, fibronectin, collagen type I, and collagen type IV. Average absorbance readings (600 nm) from three wells are presented with bars indicating standard error and the results are representative of two independent experiments. […] Average absorbance readings (600 nm) from three wells are presented with bars indicating standard error and the results are representative of two independent experiments. […] The strand colored in cyan reflects the overlap of p10 and p11. Color coded sequences of peptides p4, p6, p10, p10scr1, and p10scr2 are shown. Arginine residues in the p10 peptides are indicated by underlining.
(§2) Plasminogen-depleted human fibrinogen (Calbiochem) was purchased from VWR International. Laminin isolated from Engelbreth-Holm-Swarm murine sarcoma basement membrane and fibronectin isolated from human plasma were purchased from Sigma-Aldrich Canada Ltd. (Oakville, ON). Human collagen types I and IV (Rockland Immunochemicals, Inc.) were purchased from VWR International.
(§3) To test for binding of synthetic Tp0751 peptides p1-p13, p1scr, p6scr, p10scr1, and p10scr2 to the host proteins fibrinogen, fibronectin, laminin, collagen type I, and collagen type IV, initial binding assays were performed as described previously. For dose-dependent binding assays, recombinant proteins were serially diluted 1:2 from either 10 μM to 0.156 μm (Tp0751_78A used for crystallization and Tp0751_78 WT) or 40 μm to 0.625 μm (peptides p4, p6, p10, p11, p10scr1, and p10scr2). Average absorbance readings (600 nm) from three wells are presented with bars indicating standard error and the results are representative of two independent experiments. Plates were read at 600 nm with a BioTek enzyme-linked immunosorbent assay plate reader (Fisher Scientific, Ottawa, ON). All statistical analyses were performed using the Student’s two-tailed t-test. Non-linear regression curves were fitted and apparent dissociation constants (K d) were calculated using GraphPad Prism data analysis software (San Diego, CA).

[2] = tested on: collagen type I; assay: Initial (single point) binding screen of Tp0751 peptide library to immobilized collagen type I; conditions: immobilized human collagen type I; absorbance 600 nm, three wells, two independent experiments; Student's two-tailed t-test against non-binding peptides
Method: as §1, §2, §3

[3] = target: T1, fibrinogen (Homo sapiens, UniProt P02671+P02675+P02679); assay: Initial (single point) binding screen of Tp0751 peptide library to immobilized fibrinogen; conditions: absorbance 600 nm, three wells, two independent experiments, Student's two-tailed t-test against non-binding peptides
T1 construct: purchased Calbiochem, purchased from VWR International
T1 sequence (P02671 20-629 limits assumed): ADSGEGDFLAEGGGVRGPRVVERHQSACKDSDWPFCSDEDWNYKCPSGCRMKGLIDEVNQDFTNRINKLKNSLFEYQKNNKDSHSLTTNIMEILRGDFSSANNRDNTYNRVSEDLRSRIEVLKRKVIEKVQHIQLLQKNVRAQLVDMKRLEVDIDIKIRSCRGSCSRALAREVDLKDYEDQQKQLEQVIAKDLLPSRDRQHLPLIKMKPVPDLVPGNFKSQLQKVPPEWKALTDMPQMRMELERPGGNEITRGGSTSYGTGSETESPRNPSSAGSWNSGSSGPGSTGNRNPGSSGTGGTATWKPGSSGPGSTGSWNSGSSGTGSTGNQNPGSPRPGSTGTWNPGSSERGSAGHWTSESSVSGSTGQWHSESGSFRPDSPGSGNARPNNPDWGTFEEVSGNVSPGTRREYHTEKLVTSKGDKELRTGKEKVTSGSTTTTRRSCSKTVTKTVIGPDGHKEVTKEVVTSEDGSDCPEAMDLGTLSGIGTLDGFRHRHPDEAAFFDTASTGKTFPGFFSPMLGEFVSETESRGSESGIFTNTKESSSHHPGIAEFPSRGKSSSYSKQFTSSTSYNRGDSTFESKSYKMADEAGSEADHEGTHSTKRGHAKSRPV
T1 sequence (P02675 31-491): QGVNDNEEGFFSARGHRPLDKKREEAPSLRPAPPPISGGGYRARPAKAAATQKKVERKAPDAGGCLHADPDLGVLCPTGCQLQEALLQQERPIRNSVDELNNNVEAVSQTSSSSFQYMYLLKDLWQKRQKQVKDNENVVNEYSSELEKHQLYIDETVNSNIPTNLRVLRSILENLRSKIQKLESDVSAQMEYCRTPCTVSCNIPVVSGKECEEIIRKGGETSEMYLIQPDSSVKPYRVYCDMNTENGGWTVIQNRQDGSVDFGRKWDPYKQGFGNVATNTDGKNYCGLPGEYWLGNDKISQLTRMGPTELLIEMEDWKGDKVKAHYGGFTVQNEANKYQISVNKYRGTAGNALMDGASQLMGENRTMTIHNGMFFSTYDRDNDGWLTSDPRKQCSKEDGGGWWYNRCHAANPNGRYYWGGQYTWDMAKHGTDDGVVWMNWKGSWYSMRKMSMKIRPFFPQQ
T1 sequence (P02679 27-433 limits assumed): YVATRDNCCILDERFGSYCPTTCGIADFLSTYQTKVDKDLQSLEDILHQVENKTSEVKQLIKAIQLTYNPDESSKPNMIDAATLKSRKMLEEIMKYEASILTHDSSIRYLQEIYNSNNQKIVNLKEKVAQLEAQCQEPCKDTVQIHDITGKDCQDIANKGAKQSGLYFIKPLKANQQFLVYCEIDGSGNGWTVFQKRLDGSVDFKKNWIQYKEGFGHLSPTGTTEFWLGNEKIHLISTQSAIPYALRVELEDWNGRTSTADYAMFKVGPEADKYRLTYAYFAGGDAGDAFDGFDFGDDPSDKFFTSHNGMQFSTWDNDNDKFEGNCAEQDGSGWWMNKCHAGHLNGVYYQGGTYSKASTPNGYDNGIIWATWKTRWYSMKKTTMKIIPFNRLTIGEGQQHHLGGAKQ
Method: as §1, §2, §3

[4] = tested on: fibronectin; assay: Initial (single point) binding screen of Tp0751 peptide library to immobilized fibronectin; design: species or system human; conditions: absorbance 600 nm, three wells, two independent experiments, Student's two-tailed t-test against non-binding peptides
Method: as §1, §2, §3

[5] = target: fibronectin; assay: Dose-dependent binding assay to immobilized fibronectin; conditions: plate binding to immobilized human plasma fibronectin; peptides serially diluted 1:2 from 40 to 0.625; absorbance 600 nm, three wells, representative of two independent experiments; non-linear regression, GraphPad Prism; read-out: Apparent Kd (Fn)
Method: as §1, §2, §3

[6] = target: fibronectin isolated from human plasma (human); assay: ELISA; dose-dependent plate binding assay on immobilised fibrinogen or fibronectin; His6-tagged synthetic peptides serially diluted 1:2 from 40 μM to 0.625 μM; absorbance at 600 nm; apparent Kd by non-linear regression (GraphPad Prism)
[7] = target: T2, plasminogen-depleted human fibrinogen (human, UniProt P02671-2 20-644; P02675 31-491; P02679-2 27-437); assay: as above; conditions: both partners purified
T2 construct: fibrinogen alpha chain, human; fibrinogen beta chain, human; fibrinogen gamma chain, human; also called Fg; source: bought: Calbiochem (through VWR International)
T2 sequence (looked up) 1: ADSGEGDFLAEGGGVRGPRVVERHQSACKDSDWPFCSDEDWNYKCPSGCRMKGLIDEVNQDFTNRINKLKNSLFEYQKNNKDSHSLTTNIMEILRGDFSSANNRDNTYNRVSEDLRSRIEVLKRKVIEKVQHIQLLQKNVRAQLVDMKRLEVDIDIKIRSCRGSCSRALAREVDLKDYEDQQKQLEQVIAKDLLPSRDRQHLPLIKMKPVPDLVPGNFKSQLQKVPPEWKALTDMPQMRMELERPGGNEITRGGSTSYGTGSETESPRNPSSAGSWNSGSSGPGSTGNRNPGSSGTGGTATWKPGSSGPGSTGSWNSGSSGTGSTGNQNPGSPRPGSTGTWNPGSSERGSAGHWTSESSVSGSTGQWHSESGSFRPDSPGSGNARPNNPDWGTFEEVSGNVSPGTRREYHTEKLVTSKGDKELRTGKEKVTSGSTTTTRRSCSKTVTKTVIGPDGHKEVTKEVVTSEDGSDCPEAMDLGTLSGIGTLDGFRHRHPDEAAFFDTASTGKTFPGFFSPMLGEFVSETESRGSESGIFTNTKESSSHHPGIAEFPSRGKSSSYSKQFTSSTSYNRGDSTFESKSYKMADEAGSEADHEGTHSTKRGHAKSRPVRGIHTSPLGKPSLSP
T2 sequence (looked up) 2: T1 sequence (P02675 31-491)
T2 sequence (looked up) 3: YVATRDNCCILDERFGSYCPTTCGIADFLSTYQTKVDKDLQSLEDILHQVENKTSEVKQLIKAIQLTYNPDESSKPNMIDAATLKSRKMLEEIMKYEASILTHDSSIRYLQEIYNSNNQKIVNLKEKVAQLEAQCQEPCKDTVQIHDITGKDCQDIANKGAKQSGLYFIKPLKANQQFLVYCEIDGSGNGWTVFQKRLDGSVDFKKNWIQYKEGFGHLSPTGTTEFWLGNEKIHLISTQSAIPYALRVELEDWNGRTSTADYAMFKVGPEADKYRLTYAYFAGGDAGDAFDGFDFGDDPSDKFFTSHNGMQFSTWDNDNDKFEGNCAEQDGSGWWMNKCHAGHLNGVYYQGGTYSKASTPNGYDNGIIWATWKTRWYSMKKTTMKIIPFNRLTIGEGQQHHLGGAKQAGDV

[8] = target: T2, plasminogen-depleted human fibrinogen; assay: ELISA; dose-dependent plate binding assay on immobilised fibrinogen; recombinant Tp0751 proteins serially diluted 1:2 from 10 μM to 0.156 μM; absorbance at 600 nm; apparent Kd by non-linear regression (GraphPad Prism); conditions: both partners purified

HHHHHHTSRVKLTISFERSLVNRTRTARFI [p10scr1]
Binding to collagen IV in initial binding screen [1]: enhanced binding relative to p10 | Binding to collagen I in initial binding screen [2]: enhanced binding relative to p10 | Binding to fibrinogen in initial binding screen [3]: enhanced binding relative to p10 | Binding to fibronectin in initial binding screen [4]: enhanced binding relative to p10 | Kd [5]: 1.3 ± 0.1 µM

Tp0751 synthetic peptide p4 (from UniProt O83732 88-111)
Kd [6]: 2.4 µM

Tp0751 synthetic peptide p6 (from UniProt O83732 116-139)
Kd [6]: 4.5 µM

Tp0751 synthetic peptide p11 (from UniProt O83732 186-209)
Kd [6]: 5.8 µM

B1: Tp0751 synthetic peptide p11 (peptide)
peptide: SIRRRLEVTFESHEVIHVRAVEDV
notes: Tp0751 (pallilysin), Treponema pallidum subsp. pallidum; shares its first 10 residues (with the arginine triplet) with p10; source: synthetic peptide; not shown: His6, N-terminal, kept
Kd [7]: 9.2 ± 1 µM

B2: second scrambled version of Tp0751 peptide 10 (p10scr2) (peptide)
peptide: VAREFNKSRTILFRTSVTRLSTRI
Kd [6]: 7.9 µM

B3: Tp0751 synthetic peptide p10 (peptide)
peptide: RKTVSFLTRNTAISSIRRRLEVTF
notes: Tp0751 (pallilysin), Treponema pallidum subsp. pallidum; Its composition equals that of the printed scrambled peptide p10scr2; also called peptide 10; source: synthetic peptide; not shown: His6, N-terminal, kept
Kd [7]: 1.6 ± 0.1 µM

B4: Tp0751 synthetic peptide p4 (peptide)
peptide: GGAAQTHTQPPVQTAMRIALWNRA
notes: Tp0751 (pallilysin), Treponema pallidum subsp. pallidum; its central four residues PVQT (98-101) are printed; also called peptide 4; source: synthetic peptide; not shown: His6, N-terminal, kept
Kd [7]: 6.9 ± 0.4 µM

B5: Tp0751 synthetic peptide p6 (peptide)
peptide: QGALQHLLAGLWIQTEISPNSGDI
notes: Tp0751 (pallilysin), Treponema pallidum subsp. pallidum; its central four residues LWIQ (126-129) are printed; also called peptide 6; source: synthetic peptide; not shown: His6, N-terminal, kept
Kd [7]: 10.5 ± 2 µM

B6: Tp0751_78 WT (domain or fragment)
chain: SHGNAPPAPVGGAAQTHTQPPVQTAMRIALWNRATHGEQGALQHLLAGLWIQTEISPNSGDIHPLLFFDREHAEITFSRASVQEIFLVDSAHTHRKTVSFLTRNTAISSIRRRLEVTFESHEVIHVRAVEDVARLKIGSTSMWDGQYTRYHAGPASAPSP
notes: Tp0751 (pallilysin), Treponema pallidum subsp. pallidum, Ser78 to Pro237 (C-terminus), wild type at Glu199; The methods tell vector (modified pET28a, TEV-cleavable N-terminal His6), host strain and purification only for the E199A constructs; also called wild-type Tp0751_78 WT; source: E. coli, purified
Kd [8]: 6.1 ± 1.7 µM

B7: Tp0751_78 E199A (Tp0751_78A) (domain or fragment, Treponema pallidum subsp. pallidum, UniProt O83732 78-237, looked up)
chain: B6 chain with E122A
notes: Tp0751 (pallilysin), Treponema pallidum subsp. pallidum, Ser78 to Pro237 (C-terminus), with E199A; The construct used for crystallization; also called pallilysin Ser78 to Pro237 E199A; not shown: His6, N-terminal, cleaved
Kd [8]: 2 ± 0.4 µM

— article PMC5040251, “The Structure of Treponema pallidum Tp0751 (Pallilysin) Reveals a Non-canonical Lipocalin Fold That Mediates Adhesion to Extracellular Matrix Components and Interactions with Host Cells” (PLoS Pathogens, 2016)
